{"source": "paper PMC7806825", "target": "Recombinant ligand-binding domain of McpC (amino acid residues 35-189) (Salmonella enterica serovar Typhimurium SL1344)", "assay": "AUC; sedimentation velocity analytical ultracentrifugation (SV-AUC), done commercially (KBI BioPharma); purified McpC ligand-binding domain; dimers present at >=4 mg/mL; monomer to dimer"}
{"substance": "Recombinant ligand-binding domain of McpC (amino acid residues 35-189) (domain or fragment)", "values": [{"measurement": "stoichiometry N", "value": 2}]}
